In patent US20250382363A1 (NUMAB THERAPEUTICS, published 2025):
Residue numbers refer to the chain shown, from its start. Numbers in names are those of the source.

B1: PRO2934 (scFv 37-20-B03-sc09.1_(L144K, S148L)) (scFv)
scFv: DIQMTQSPASLSASVGDRVTITCQASQSIGTYLAWYQQKPGKPPKLLIYRAFILASGVPSRFSGSGSGTDFTLTISSLQPEDFATYYCQSNFYSDSTTIGPNAFGTGTKVTVLGGGGGSGGGGSGGGGSGGGGSEVQLVESGGGLVQPGGSLRLSCAASGFSFNSDYWIYWVRQAPGKGLEWIASIYGGSSGNTQYASWAQGRFTISRDNSKNTVYLQMNSLRAEDTAVYFCARGYVDYGGATDLWGQGTKVTVLS
notes: PRO2230 variant; VH substitutions, AHo numbering; also called PRO2230 L144K-S148L
B2: PRO2986 (scFv 37-20-B03-sc09.1_(T146A)) (scFv)
scFv: B1 scFv with K251L, T253A, L255S
notes: PRO2230 variant; VH substitution, AHo numbering; also called PRO2230 T146A
B3: PRO3342 (scFv 37-20-B03-sc09.1_(T101K, T146D)) (scFv)
scFv: B1 scFv with T227K, K251L, T253D, L255S
notes: PRO2230 variant; VH substitutions, AHo numbering; also called PRO2230 T101K-T146D
B4: PRO3340 (scFv 37-20-B03-sc09.1_(T101S, T146K)) (scFv)
scFv: B1 scFv with T227S, K251L, T253K, L255S
notes: PRO2230 variant; VH substitutions, AHo numbering; also called PRO2230 T101S-T146K
B5: PRO2985 (scFv 37-20-B03-sc09.1_(T101A)) (scFv)
scFv: B1 scFv with T227A, K251L, L255S
notes: PRO2230 variant; VH substitution, AHo numbering; also called PRO2230 T101A
B6: PRO3339 (scFv 37-20-B03-sc09.1_(T101N, T146Q)) (scFv)
scFv: B1 scFv with T227N, K251L, T253Q, L255S
notes: PRO2230 variant; VH substitutions, AHo numbering; also called PRO2230 T101N-T146Q
B7: PRO3308 (scFv 37-20-B03-sc09.1_(L12A, T101S, L144K, T146Q)) (scFv)
scFv: B1 scFv with L145A, T227S, T253Q, L255S
notes: PRO2230 variant; VH substitutions, AHo numbering; also called PRO2230 L12A-T101S-L144K-T146Q
B8: PRO3312 (scFv 37-20-B03-sc09.1_(T101R, T146Q)) (scFv)
scFv: B1 scFv with T227R, K251L, T253Q, L255S
notes: PRO2230 variant; VH substitutions, AHo numbering; also called PRO2230 T101R-T146Q
B9: PRO2948 (scFv 37-20-B03-sc09.1_(T146R)) (scFv)
scFv: B1 scFv with K251L, T253R, L255S
notes: PRO2230 variant; VH substitution, AHo numbering; also called PRO2230 T146R
B10: PRO3317 (scFv 37-20-B03-sc09.1_(T101Q)) (scFv)
scFv: B1 scFv with T227Q, K251L, L255S
notes: PRO2230 variant; VH substitution, AHo numbering; also called PRO2230 T101Q
B11: PRO3338 (scFv 37-20-B03-sc09.1_(T101K, T146Q)) (scFv)
scFv: B1 scFv with T227K, K251L, T253Q, L255S
notes: PRO2230 variant; VH substitutions, AHo numbering; also called PRO2230 T101K-T146Q
B12: PRO3314 (scFv 37-20-B03-sc09.1_(T101Q, T146Q)) (scFv)
scFv: B1 scFv with T227Q, K251L, T253Q, L255S
notes: PRO2230 variant; VH substitutions, AHo numbering; also called PRO2230 T101Q-T146Q
B13: PRO3309 (scFv 37-20-B03-sc09.1_(L12R, T101S, L144A, T146Q)) (scFv)
scFv: B1 scFv with L145R, T227S, K251A, T253Q, L255S
notes: PRO2230 variant; VH substitutions, AHo numbering; also called PRO2230 L12R-T101S-L144A-T146Q
B14: PRO2951 (scFv 37-20-B03-sc09.1_(T101R)) (scFv)
scFv: B1 scFv with T227R, K251L, L255S
notes: PRO2230 variant; VH substitution, AHo numbering; also called PRO2230 T101R
B15: PRO2984 (scFv 37-20-B03-sc09.1_(L12S, V103T, L144T)) (scFv)
scFv: B1 scFv with L145S, V229T, K251T, L255S
notes: VH substitutions, AHo numbering; also called PRO2230-L12S-V103T-L144T
B16: PRO3343 (scFv 37-20-B03-sc09.1_(T101R, T146E)) (scFv)
scFv: B1 scFv with T227R, K251L, T253E, L255S
notes: PRO2230 variant; VH substitutions, AHo numbering; also called PRO2230 T101R-T146E
B17: PRO3307 (scFv 37-20-B03-sc09.1_(L12A, T101S, L144A, T146R)) (scFv)
scFv: B1 scFv with L145A, T227S, K251A, T253R, L255S
notes: PRO2230 variant; VH substitutions, AHo numbering; also called PRO2230 L12A-T101S-L144A-T146R
B18: PRO3341 (scFv 37-20-B03-sc09.1_(T101S, T146S)) (scFv)
scFv: B1 scFv with T227S, K251L, T253S, L255S
notes: PRO2230 variant; VH substitutions, AHo numbering; also called PRO2230 T101S-T146S
B19: PRO3306 (scFv 37-20-B03-sc09.1_(L12A, T101R, L144A, T146Q)) (scFv)
scFv: B1 scFv with L145A, T227R, K251A, T253Q, L255S
notes: PRO2230 variant; VH substitutions, AHo numbering; also called PRO2230 L12A-T101R-L144A-T146Q
B20: PRO2935 (scFv 37-20-B03-sc09.1_(L144A, S148N)) (scFv)
scFv: B1 scFv with K251A, L255N
notes: PRO2230 variant; VH substitutions, AHo numbering; also called PRO2230 L144A-S148N
B21: PRO2947 (scFv 37-20-B03-sc09.1_(T146K)) (scFv)
scFv: B1 scFv with K251L, T253K, L255S
notes: PRO2230 variant; VH substitution, AHo numbering; also called PRO2230 T146K
B22: PRO3313 (scFv 37-20-B03-sc09.1_(T101S, T146R)) (scFv)
scFv: B1 scFv with T227S, K251L, T253R, L255S
notes: PRO2230 variant; VH substitutions, AHo numbering; also called PRO2230 T101S-T146R
B23: PRO2949 (scFv 37-20-B03-sc09.1_(T146E)) (scFv)
scFv: B1 scFv with K251L, T253E, L255S
notes: PRO2230 variant; VH substitution, AHo numbering; also called PRO2230 T146E
B24: PRO3311 (scFv 37-20-B03-sc09.1_(L12A, T101Q, L144A, T146Q)) (scFv)
scFv: B1 scFv with L145A, T227Q, K251A, T253Q, L255S
notes: PRO2230 variant; VH substitutions, AHo numbering; also called PRO2230 L12A-T101Q-L144A-T146Q
B25: PRO2952 (scFv 37-20-B03-sc09.1_(T101S)) (scFv)
scFv: B1 scFv with T227S, K251L, L255S
notes: PRO2230 variant; VH substitution, AHo numbering; also called PRO2230 T101S
B26: PRO2988 (scFv 37-20-B03-sc09.1_(P48A)) (scFv)
scFv: B1 scFv with P176A, K251L, L255S
notes: PRO2230 variant; VH substitution, AHo numbering; also called PRO2230 P48A
B27: PRO2987 (scFv 37-20-B03-sc09.1_(P15A)) (scFv)
scFv: B1 scFv with P148A, K251L, L255S
notes: PRO2230 variant; VH substitution, AHo numbering; also called PRO2230 P15A
B28: PRO2950 (scFv 37-20-B03-sc09.1_(T146Q)) (scFv)
scFv: B1 scFv with K251L, T253Q, L255S
notes: PRO2230 variant; VH substitution, AHo numbering; also called PRO2230 T146Q
B29: PRO3310 (scFv 37-20-B03-sc09.1_(L12R, T101R, L144A, T146Q)) (scFv)
scFv: B1 scFv with L145R, T227R, K251A, T253Q, L255S
notes: PRO2230 variant; VH substitutions, AHo numbering; also called PRO2230 L12R-T101R-L144A-T146Q

The binders below were run against T1, human a-PD-L1 Fc (Sino Biological, 10084-H02H, LC11NO2402) (human, UniProt Q9NZQ7 19-239) (assay: SPR, PD-L1 Fc immobilised, scFv analyte, 1:1 fit).
T1 construct: Bought Fc fusion immobilised on the SPR chip; Printed as 'a-PD-L1 Fc' but used as the antigen (ligand) for the anti-PD-L1 scFvs; also called Human PD-L1; not shown: Fc part
Procedure: The mutation variants were then injected at concentrations of 10 nM, 2 nM and 0.4 nM over the ligand-immobilized and reference spots. The wild type variants were used as a control, while an empty spot was used as reference.
After each cycle with analyte, the surface was regenerated with a 3M MgCl₂ solution, thereby allowing the next analyte cycle to have only free ligand available. Binding affinity KD was globally calculated by the Bruker SPR software based on the binding association (kₒₙ) and dissociation (Koff) rate, by fitting a 1:1 Langmuir model to the curves obtained by the cycles with the three different concentrations of the analyte.

T1 sequence (Q9NZQ7 19-239 limits assumed): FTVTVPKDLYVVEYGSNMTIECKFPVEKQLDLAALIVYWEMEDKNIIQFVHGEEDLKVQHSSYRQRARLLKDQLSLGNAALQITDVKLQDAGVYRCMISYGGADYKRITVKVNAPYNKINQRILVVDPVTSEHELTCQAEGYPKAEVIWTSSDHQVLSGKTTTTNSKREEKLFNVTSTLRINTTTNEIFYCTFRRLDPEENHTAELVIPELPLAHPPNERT

Row | Kd | n-fold to wt | Binder
1 | 0.018 nM | 0.4 fold | B1
2 | 0.069 nM | 1.4 fold | B2
3 | 0.038 nM | 0.8 fold | B3
4 | 0.056 nM | 1.1 fold | B4
5 | 0.047 nM | 1 fold | B5
6 | 0.035 nM | 0.7 fold | B6
7 | 0.036 nM | 0.7 fold | B7
8 | 0.041 nM | 0.8 fold | B8
9 | 0.064 nM | 1.3 fold | B9
10 | 0.042 nM | 0.9 fold | B10
11 | 0.021 nM | 0.4 fold | B11
12 | 0.027 nM | 0.6 fold | B12
13 | 0.026 nM | 0.5 fold | B13
14 | 0.042 nM | 0.9 fold | B14
15 | 0.036 nM | 0.7 fold | B15
16 | 0.029 nM | 0.6 fold | B16
17 | 0.027 nM | 0.6 fold | B17
18 | 0.051 nM | 1 fold | B18
19 | 0.018 nM | 0.4 fold | B19
20 | 0.091 nM | 1.9 fold | B20
21 | 0.041 nM | 0.8 fold | B21
22 | 0.014 nM | 0.3 fold | B22
23 | 0.056 nM | 1.1 fold | B23
24 | 0.048 nM | 1 fold | B24
25 | 0.036 nM | 0.7 fold | B25
26 | 0.034 nM | 0.7 fold | B26
27 | 0.048 nM | 1 fold | B27
28 | 0.064 nM | 1.3 fold | B28
29 | 0.038 nM | 0.8 fold | B29

The binders below were run against pre-existing anti-drug antibodies (ADA) present in human sera (assay: pre-existing ADA ELISA, scFv coated, human sera unspiked vs spiked).

Row | Mean No of serum samples >30% inhibition (30% CCP) with SCP (serum samples) | No of serum samples >30% inhibition (30% CCP) without SCP (serum samples) | Binder
30 | 2 | 2 | B1
31 | 8 | 2 | B2
32 | 0 | 1 | B3
33 | 0 | 2 | B4
34 | 2 | 2 | B5
35 | 0 | 0 | B6
36 | 2 | 7 | B7
37 | 1 | 2 | B8
38 | 1 | 0 | B9
39 | 1 | 7 | B10
40 | 0 | 0 | B11
41 | 1 | 4 | B12
42 | 1 | 4 | B13
43 | 1 | 0 | B14
44 | 5 | 5 | B15
45 | 0 | 0 | B16
46 | 4 | 7 | B17
47 | 0 | 4 | B18
48 | 0 | 7 | B19
49 | 8 | 8 | B20
50 | 1 | 2 | B21
51 | 1 | 5 | B22
52 | 1 | 2 | B23
53 | 7 | 10 | B24
54 | 5 | 8 | B25
55 | 3 | 7 | B26
56 | 2 | 7 | B27
57 | 4 | 4 | B28
58 | 3 | 6 | B29
